Source: patent publication CN114773459A (UNIV SHENZHEN, dated 2022)

What was measured:
Test in all cases: BLI, biotinylated S1 variant on streptavidin sensor
[1] = molecular target: T1, SARS-COV2 突变株 S1 Alpha B.1.1.7 (SARS-CoV-2 Alpha B.1.1.7, UniProt P0DTC2 16-685)
T1 construct: domain: S1; also called Alpha B.1.1.7的S1; Alpha突变体

[2] = molecular target: T2, SARS-COV2 突变株 S1 Delta B.1.617.2 (SARS-CoV-2 Delta B.1.617.2, UniProt P0DTC2 16-685)
T2 construct: domain: S1; also called Delta B.1.617.2的S1; Delta突变体

[3] = molecular target: T3, SARS-COV2 突变株 S1 Omicron BA.2 (SARS-CoV-2 Omicron BA.2, UniProt P0DTC2 16-685)
T3 construct: domain: S1; also called Omicron BA.2的S1; Omicron突变体

B1: 纳米抗体Nb-H6 (VHH)
VHH: QLVESGGGLVQAGDSLRLSCAASERALSSFHMGWFRQAPGKQRAFVAAIKWRDGTTYYADSVKGRFTISRDNAKNTVYLQMNSLEPEDTAVYYCYYRGRWGTYWGQGTQVTVSS
How did the Kd [1] turn out when B1 was run?
The Kd was 1080 nM.

And the Kd [2]?
The Kd was 1120 nM.

What about the Kd [3] of the same binder?
Its Kd is 200 nM.
